B1: α-GFP Nb displayed as N-terminal fusion to HA-tagged Aga1ΔN181 (VHH)
VHH: QVQLVESGGALVQPGGSLRLSCAASGFPVNRYSMRWYRQAPGKEREWVAGMSSAGDRSSYEDSVKGRFTISRDDARNTVYLQMNSLKPEDTAVYYCNVNVGFEYWGQGTQVTVSS
notes: anti-GFP nanobody; Plasmid details in File S1; also called anti-GFP Nanobody; not shown: HA (of the anchor part), internal (between nanobody and anchor), kept; Aga1ΔN181 anchor (Aga1p YNR044W amino acids 182–544), C-terminal, kept
B2: α-GFP Nb displayed as N-terminal fusion to 2xFLAG-tagged Aga1ΔN181 (VHH)
VHH: B1 VHH
notes: anti-GFP nanobody, as in m2; also called anti-GFP Nanobody; not shown: 2xFLAG, internal (between nanobody and anchor), kept; Aga1ΔN181 anchor (Aga1p YNR044W amino acids 182–544), C-terminal, kept
B3: α-GFP Nb displayed as C-terminal fusion to MYC-tagged Aga2 (VHH)
VHH: B1 VHH
notes: anti-GFP nanobody, as in m2; also called anti-GFP Nanobody; not shown: Aga2p anchor (YGL032C), N-terminal, kept
B4: α-GFP Nb displayed as C-terminal fusion to untagged Aga2 (VHH)
VHH: B1 VHH
notes: as for B3
B5: α-GFP Nb displayed as C-terminal fusion to 2xFLAG-tagged Aga2 (VHH)
VHH: B1 VHH
notes: anti-GFP nanobody, as in m2; Held on the cell by coexpressed Aga1; also called anti-GFP Nanobody; not shown: 2xFLAG, internal (after amino acid 18 of Aga2p, after the signal peptide), kept; Aga2p anchor (YGL032C), N-terminal, kept
B6: α-GFP Nb displayed as C-terminal fusion to HA-tagged Aga2 (VHH)
VHH: B1 VHH
notes: anti-GFP nanobody, as in m2; Held on the cell by coexpressed Aga1; also called anti-GFP Nanobody; not shown: HA, internal (after amino acid 18 of Aga2p, after the signal peptide), kept; Aga2p anchor (YGL032C), N-terminal, kept
B7: α-GFP Nb displayed as N-terminal fusion to MYC-tagged Aga1ΔN181 (VHH)
VHH: B1 VHH
notes: anti-GFP nanobody, as in m2; also called anti-GFP Nanobody; not shown: MYC, internal (between nanobody and anchor), kept; Aga1ΔN181 anchor (Aga1p YNR044W amino acids 182–544), C-terminal, kept

Biological target: T1, GFP (Aequorea victoria GFP, engineered …)
T1 construct: green fluorescent protein expressed from pYTK001; also called green fluorescent protein; source: E. coli DH5α, constitutive expression from pYTK001, in lysate
T1 sequence (P42212 other isoform, or with tags, fused parts or gaps): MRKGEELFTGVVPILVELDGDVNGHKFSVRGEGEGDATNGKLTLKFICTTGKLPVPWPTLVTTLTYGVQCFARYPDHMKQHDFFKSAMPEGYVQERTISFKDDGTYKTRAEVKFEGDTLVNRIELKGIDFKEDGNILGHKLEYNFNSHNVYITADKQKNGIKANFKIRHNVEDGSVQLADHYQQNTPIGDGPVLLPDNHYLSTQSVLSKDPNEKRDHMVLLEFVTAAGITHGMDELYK
Test: flow cytometry on cells; about 1 x 10^6 yeast cells displaying the α-GFP Nb in 20 mM HEPES pH 7.5, 150 mM NaCl, 0.1% BSA, 5 mM maltose; GFP from a bacterial cell lysate (20–30 μL); 15 min at 4 °C; GFP fluorescence, percent of positive cells
Conditions: partners not purified

Binder	percent of cells labelled with GFP
B1	> 80%
B2	> 80%
B3	> 60%
B4	> 60%
B5	> 60%
B6	> 60%
B7	> 80%
